Measurements: EP1192182B1, “PITUITARY ADENYLATE CYCLASE ACTIVATING PEPTIDE (PACAP) RECEPTOR 3 (R3) AGONISTS AND THEIR PHARMACOLOGICAL METHODS OF USE” (priority 1999, dated 2001)
Non-standard residues stand in square brackets, D forms with d. No end group written: not given here. Nle = CCCC[C@H](N)C(=O)O

T1: human PACAP/VIP R2 (PACAP R3) receptor (human, UniProt P41587 24-438)
T1 sequence (looked up): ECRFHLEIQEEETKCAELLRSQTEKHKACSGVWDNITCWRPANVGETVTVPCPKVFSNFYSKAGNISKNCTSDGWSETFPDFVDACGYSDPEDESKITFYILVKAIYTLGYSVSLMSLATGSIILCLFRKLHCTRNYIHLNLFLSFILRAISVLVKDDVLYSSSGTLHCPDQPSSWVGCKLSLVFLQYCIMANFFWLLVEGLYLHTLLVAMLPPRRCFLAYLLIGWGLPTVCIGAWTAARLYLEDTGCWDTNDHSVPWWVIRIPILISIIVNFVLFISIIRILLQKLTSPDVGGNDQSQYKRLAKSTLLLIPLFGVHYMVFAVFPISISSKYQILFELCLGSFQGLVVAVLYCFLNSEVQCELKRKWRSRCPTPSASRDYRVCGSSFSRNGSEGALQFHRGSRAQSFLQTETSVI

T2: PACAP-R3 (human, UniProt P41587 24-438)
T2 sequence (looked up): T1 sequence (looked up)


The binders below were run against T1, human PACAP/VIP R2 (PACAP R3) receptor (assay: cell-based or functional assay).

Binder | R3 EC50, nM (cAMP SPA) [nM] | R3 Selectivity [ratio]
HSDAVFTDDYTRLRKEVAAKKYLESIKDKRY [R3P172] | 2.6 | 29
HSDAVFTDNYTRLRKQMAAKKYLNSIKNKW [rR3P169] | 0.2 | 
HSDAVFTDNYTRLRKQMAAKKYLNSIKNKQ [rR3P165] | 0.5 | 
ESDGIFTDSYSRYRKQMAVKKYLAAVL [R3P173] | 200 | 

The next lines start with the values.

R3 EC50, nM (cAMP SPA) [nM] | R3 Selectivity [ratio] | Binder
0.4 | 200 | HSDAVFTDNYTRLRKQVAAKKYLQSIKNKRYSWCEPGWCR [rR3P171]
1 |  | HSDAVFTDNYTRLRKQMAAKKYLNSIKNKT [rR3P167]
1.1 | 1.4 | HSDAVFTDNYTRLRKQMAAKKYLNSIKNRI-NH2 [PAC27]

Each binder was assayed against T2, PACAP-R3 (assay: cell-based or functional assay).

Binder | R3 Selectivity [ratio] | R3 EC50 [nM]
HSDAVFTDNYTRLRKQMAVKKYLNSIKK [R3P41] | 100 | 
HSDAVFTDNYTRLRKQMAAKKYLNSIKNTR [R3P148] | 100 | 0.3
HSDAVFTDNYTRLRKQMAVKKYLNSILK [R3P43] | 10 | 
HSDAVFTDNYTRLRKQMAAKKYLNSIKNRR [R3P146] | 100 | 0.3
HSDAVFTDNYTRLRKQMAAKKYLNSIKNVR [R3P149] | 80 | 0.5
HSDAVFTDNYTRLRKQMAAKKYLNSIKNMR [R3P142] | 30 | 
HSDAVFTDNYTELRKQMAVKKYLNSILN [R3P44] | 6 | 
HSDAVFTDNYTRLRKQLAVKKYLNDIKNGGT [R3P29] | > 200 | 
HSDAVFTDNYTRLRKQLAAKKYLNSIKNGGT [R3P30] | 50 | 
HSDAVFTDNYTRLRKQLAVKKYLNSIKKGGT [R3P25] | 20 | 
HSDAVFTDNYTRLRKQLAVKKYLNDIKKGGT [R3P21] | 60 | 
HSDAVFTDNYTRLRKQMAAKKYLNSIKNKE [R3P155] | 100 | 0.4
HSDAVFTDNYTRLRKQMAAKKYLNSIKNKF [R3P156] | 100 | 1
HSDAVFTDNYTRLRKQMAAKKYLNSIKNNR [R3P143] | 30 | 0.2
HSDAVFTENYTKLRKQLAAKKYLNDLKKGGTSWCEPGWCR [R3P19] | 30 | 
HSDAVFTDNYTRLRKQMAAKKYLNSIKNKL [R3P161] |  | 0.2
HSDAVFTDNYTRLRKQMAAKKYLNSIKNPR [R3P144] | 100 | 3
HSDAVFTDNYTRLRKQMAAKKYLNSIKNKD [R3P153] | 200 | 0.2
HSDAVFTDNYTRLRKQMAAKKYLNSIKNKP [R3P164] |  | 0.3
HSDAVFTDNYTRLRKQMAAKKYLNSIKNKI [R3P159] | 400 | 0.5
HSDAVFTDNYTRLRKQLAAKKYLNDIKK [R3P33] | > 200 | 
HSDAVFTDNYTRLRKQLAAKKYLNDIKKKRY [R3P36] | > 200 | 
HSDAVFTDNYTRLRKQMAAKKYLNSIKNKN [R3P163] | 200 | 0.2
HSDAVFTDNYTRLRKQMAAKKYLNSIKNKH [R3P158] | 90 | 0.07
HSDAVFTDNYTRLRKQLAAKKYLNDIKKQ [R3P34] | > 70 | 

Second part, the binder after the results:

R3 Selectivity [ratio] | R3 EC50 [nM] | Binder
100 | 0.5 | HSDAVFTDNYTRLRKQMAAKKYLNSIKNQR [R3P145]
50 | 0.8 | HSDAVFTDNYTRLRKQMAAKKYLNSIKNWR [R3P150]
170 | 0.3 | HSDAVFTDNYTRLRKQMAAKKYLNSIKNKG [R3P157]
200 |  | HSDAVFTDNYTRLRKQLAAKKYLNDIKKG [R3P32]
500 | 0.2 | HSDAVFTDNYTRLRKQMAAKKYLNSIKNSR [R3P147]
> 40 |  | HSDAVFTDNYTRLRKQLAAKKYLNDIKKNQ [R3P35]
230 |  | HSDAVFTDNYTRLRKQMAAKKYLNDIKKGGT [R3P20]
34 |  | HSDAVFTDNYTRLRKQLAAKKYLNDIKNGGT [R3P24]
> 180 |  | HSDAVFTDNYTRLRKQMAAKKYLNSIKKGGT [R3P26]
24 |  | HSDAVFTDNYTRLRKQLAAKKYLNSIKKGGT [R3P22]
> 50 |  | Ac-HSDAVFTENYTKLRKQLAAKKYLNDLKKGGT-NH2 [R3P1]
10 |  | HSDAVFTDNYTRLRKQMAVKKYLNSIKN [R3P42]
500 |  | HSDAVFTDNYTRLRKQMAAKKYLNSIKNKK [R3P160]
> 250 |  | Ac-HSDAVFTENYTKLRKQ[Nle]AAKKYLNDLKKGGT-NH2 [R3P0]
> 300 |  | HSDAVFTDNYTRLRKQLAAKKYLNDIKKGG [R3P31]
